B1: Hairpin Ribozyme (parent)
chain: GUCCUCUUUCACGUGCGCGUGAAAGAGAGAAGUGAACCAGAGAAACACACGUUGUGGUAUAUUACCUGGUA

Variants of B1 are the subject of the data set. The data set is described as follows: self-cleavage, relative activity (ratio to wild type); higher = more cleavage; co-transcriptional.
Turning to G19C U67G, the self-cleavage came to 0.227. Then U2C U52C, with 0.0386. As to G34C U52C, the self-cleavage came out at 1.6. As for A24G U62G, the self-cleavage worked out at 0.0667.

With A36G C46A, the self-cleavage was determined as 0.0586. Consider G27U G57A, for which the self-cleavage amounted to 0.209.

On to G29U U60A, for which the self-cleavage turned out to be 0.169. For the variant A28G G51A, the self-cleavage is 1.25. As to A59U C65U, the self-cleavage is 0.13. Regarding C50U U52A, the self-cleavage came to 0.456. Next, C4G C10A: 0.12; G40A U55A: 0.157. With G15A G42C, the self-cleavage was 0.294. Take A28C A39G: the self-cleavage came to 0.171. A36U U52G: the self-cleavage is 0.466. For A28C U33G, the self-cleavage is 0. In the case of A30U C37U, the self-cleavage was found to be 0.206. C4U G17C: the self-cleavage stood at 0.266. Turning to G51U, the self-cleavage stood at 1.03. Next, G13A G57A: 0.175. Then C16A, with 0.903; and G32C C48G, with 0.121; and U14A A22C, with 0.829. Then C46G G51A, with 0.154. Consider A44C A49U, for which the self-cleavage was found to be 0.0612. Next, A39U G57C: 0.134. Regarding U2C A23G, the self-cleavage amounted to 0.116. Take A28G A47G: the self-cleavage stood at 0.198.

On to U7A U67C, for which the self-cleavage was 0.25.

As to A26C U63C, the self-cleavage came out at 0.177. As to A35G A45C, the self-cleavage was 0.106. G32A C50G: the self-cleavage worked out at 0.179. Turning to U53G U55A, the self-cleavage is 0.269.

As to C6G G13C, the self-cleavage came out at 0.381. Consider U5G C10G, for which the self-cleavage stood at 0.164. As to U8A G69A, the self-cleavage turned out to be 0.375.

Regarding U63C A71G, the self-cleavage was determined as 0.328. On to G21C G69A, for which the self-cleavage is 0.419. For the variant G15U G34A, the self-cleavage is 1.33. A43G A59G: the self-cleavage came to 0.094. Next, A11G U58C: 0.81; A11G U58A: 0.557. As for C48U A61G, the self-cleavage turned out to be 0.177. Consider A26C C65G, for which the self-cleavage was 0.226. Turning to G51A A64U, the self-cleavage stood at 0.22. Turning to G13U U52C, the self-cleavage worked out at 0.655.

On to A45U C46A, for which the self-cleavage is 0.125. Turning to U2C C48U, the self-cleavage was 0.0586. As for A47U A64C, the self-cleavage was found to be 0.0694. U20A G54A: the self-cleavage was 0.546. With G27U A31U, the self-cleavage was found to be 0.119. Next, A49G U62C: 0.154; C37U A41G: 0.994; A11U G19C: 0.687. Turning to G27U C66A, the self-cleavage stood at 0.169.

Take G25U A36U: the self-cleavage is 0.4. With G56U A61C, the self-cleavage amounted to 0.134.

As to A22C A64U, the self-cleavage is 0.251. On to G57A U62A, for which the self-cleavage was determined as 0.212. G15A: the self-cleavage is 0.906. For A35C C50A, the self-cleavage came to 0.364. Consider A11C U55G, for which the self-cleavage worked out at 0.249. A28U A47G: the self-cleavage came out at 0.0453. With U33A A41C, the self-cleavage was 0.0532.

A28C A30G: the self-cleavage was determined as 0.136. Take U7A C10U: the self-cleavage came to 0.799. On to A11G C37A, for which the self-cleavage amounted to 0.149. For the variant U8G C18A, the self-cleavage was determined as 0.72. Take A11G A36U: the self-cleavage worked out at 0.512.

Regarding C3A G42U, the self-cleavage was found to be 0.249.

Turning to G54U A64G, the self-cleavage came out at 0.4. On to C3U A39G, for which the self-cleavage is 0.122.

For U5A G69C, the self-cleavage was 0.0571.

For the variant A44U U55G, the self-cleavage amounted to 0.0792. Take C16U U60G: the self-cleavage was 0.634. For the variant G13C C48G, the self-cleavage was found to be 0.102. Next, U14G A35U: 0.49; U20C C38G: 0.154. With A44U G56U, the self-cleavage was 0.231. For U53C A64U, the self-cleavage was 0. With U58G U67A, the self-cleavage was found to be 0.181. With G34A A61C, the self-cleavage worked out at 0.336. On to U7G C66G, for which the self-cleavage turned out to be 0.0969. Next, U2C C46G: 0.0408.

Take U55C G56U: the self-cleavage turned out to be 0.321. On to A23G G27C, for which the self-cleavage came to 0.149. As for G27A G54U, the self-cleavage was 0.213. G15A A64U: the self-cleavage turned out to be 0.233. Then G29A U67C, with 0.106. U5G G17A: the self-cleavage was determined as 0.362. For the variant G27U A64G, the self-cleavage was 0.205. For the variant U60G U62A, the self-cleavage came to 0.203.

As to C4G A23C, the self-cleavage amounted to 0.233. Regarding C4A G57A, the self-cleavage was 0.117.

For the variant A44U U53A, the self-cleavage stood at 0.079. Next, G17A A36G: 1.17; C4U G68U: 0.109. Then A36C A49G, with 0.28; and G34U, with 1.42. Turning to C12A G13U, the self-cleavage was found to be 0.673. As to G17U U20G, the self-cleavage was 0.642. On to U2G U53G, for which the self-cleavage was 0.267. Take C3G A23G: the self-cleavage was determined as 0.126. In the case of G27C C37A, the self-cleavage was 0.121. C10A G42U: the self-cleavage is 0.268. Next, C10A U33G: 0.114; A49G A59G: 0.145; C3G C12A: 0.254. As to G25A A59G, the self-cleavage turned out to be 0.138. Take C4G A71G: the self-cleavage came out at 0.241. Consider C4A C18U, for which the self-cleavage amounted to 0.342. As for U8C G29A, the self-cleavage stood at 0.112. Consider C50A U70G, for which the self-cleavage worked out at 0.252.

Turning to C12G A43U, the self-cleavage came out at 0.196.

For the variant A49C U53G, the self-cleavage was 0.0631. Turning to C10G G19U, the self-cleavage was determined as 0.507. For the variant G29C U33G, the self-cleavage amounted to 0.13. For the variant G42A C66G, the self-cleavage worked out at 0.113. Turning to U2C U7A, the self-cleavage came out at 0.119. Then G17C C48U, with 0.148; and G27C C38G, with 0.0571; and G34C G40A, with 0.576.

Consider A11C G27C, for which the self-cleavage was 0.165. In the case of A11C U70G, the self-cleavage was found to be 0.608. Regarding A30U G42C, the self-cleavage is 0.114. As to G56C U58G, the self-cleavage came out at 0.234. For U58A U67C, the self-cleavage came to 0.118.

As to A11C A23C, the self-cleavage amounted to 0.622.

Consider A11G U20C, for which the self-cleavage was found to be 0.857. For the variant A23G, the self-cleavage was 0.851. With G40U A59G, the self-cleavage was found to be 0.115. Next, A24G G29A: 0.11; A31U A47C: 0.109; U53G G57A: 0.178. In the case of U8G A22G, the self-cleavage is 0.676. A35U A44G: the self-cleavage turned out to be 0.234. With U20A G68U, the self-cleavage was 0.297. Take G25A C37G: the self-cleavage is 0.134.

Consider U52G G57A, for which the self-cleavage came to 0.181. Consider C16U C65A, for which the self-cleavage is 1.15. G29C C46A: the self-cleavage is 0.111. Consider A36C U62C, for which the self-cleavage amounted to 0.192.

As for G21A C66G, the self-cleavage turned out to be 0.156.

Take G42A U52C: the self-cleavage amounted to 0.208.

Turning to G1C G17U, the self-cleavage is 0.204. With G56U C65A, the self-cleavage was 0.203.

As to U20A G25U, the self-cleavage turned out to be 0.529. Next, G29A C46A: 0.0992. Turning to G21C A47C, the self-cleavage turned out to be 0.254. Consider A45G C65G, for which the self-cleavage was 0.168. Regarding G54U A61G, the self-cleavage amounted to 0.139. With A35G U70C, the self-cleavage was found to be 0.796.

On to A36C C66U, for which the self-cleavage turned out to be 0.264.

For the variant U8A G32U, the self-cleavage is 0.166. As to A41G G54U, the self-cleavage was determined as 0.577. On to C50A U53A, for which the self-cleavage was determined as 0.384.

On to C12A G56U, for which the self-cleavage turned out to be 0.159. U5C G17C: the self-cleavage came out at 0.339.

In the case of G1A G17A, the self-cleavage worked out at 0.0844. In the case of A23C A44U, the self-cleavage came out at 0.129. With C10G G40U, the self-cleavage is 0.161. Turning to C16U A44U, the self-cleavage is 0.154.

Consider U33C U62A, for which the self-cleavage stood at 0.278. As for G17U G51U, the self-cleavage was 0.798. Then U9A G19C, with 0.588; and C4U A23G, with 0.299. Next, G56A U60G: 0.186.

The values are drawn from the RNAGym collection of RNA variant scans (doi:10.7554/elife.80360).
